T1: peptide-6 (HSP65-derived peptide, GPKGRNVVLEKKWGAP) (Mycobacterium tuberculosis)
T1 construct: also called peptide-6 antigen; 15
T1 peptide: GPKGRNVVLEKKWGAP


Legend:
[1] = target: T1, peptide-6 (HSP65-derived peptide, …); test: ELISA, peptide-6 coated at 10 µg/ml
[2] = target: T1, peptide-6 (HSP65-derived peptide, …); test: ELISA, peptide-6 coated plate
[3] = target: T1, peptide-6 (HSP65-derived peptide, …); test: ELISA, peptide-6 coated at 10 µg/ml, anti-human IgG kappa peroxidase
[4] = target: T2, human adenylyl cyclase-associated protein 1 (CAP1) fused to His tag at the N-terminus (human, UniProt Q01518 1-475); test: Western blot of over-expressed and purified His-CAP1
T2 construct: also called His-CAP1; His-tagged CAP1; not shown: 6xHIS tag at the N terminus from a modified Pet22b vector

[5] = target: T1, peptide-6 (HSP65-derived peptide, …); test: ELISA, plates precoated with 10 µg/ml peptide-6, goat anti-human IgG peroxidase
[6] = target: T1, peptide-6 (HSP65-derived peptide, …); test: ELISA, plates precoated with 10 µg/ml peptide-6, goat anti-mouse IgM peroxidase

T2 sequence (Q01518 whole entry, the tested form may be a part): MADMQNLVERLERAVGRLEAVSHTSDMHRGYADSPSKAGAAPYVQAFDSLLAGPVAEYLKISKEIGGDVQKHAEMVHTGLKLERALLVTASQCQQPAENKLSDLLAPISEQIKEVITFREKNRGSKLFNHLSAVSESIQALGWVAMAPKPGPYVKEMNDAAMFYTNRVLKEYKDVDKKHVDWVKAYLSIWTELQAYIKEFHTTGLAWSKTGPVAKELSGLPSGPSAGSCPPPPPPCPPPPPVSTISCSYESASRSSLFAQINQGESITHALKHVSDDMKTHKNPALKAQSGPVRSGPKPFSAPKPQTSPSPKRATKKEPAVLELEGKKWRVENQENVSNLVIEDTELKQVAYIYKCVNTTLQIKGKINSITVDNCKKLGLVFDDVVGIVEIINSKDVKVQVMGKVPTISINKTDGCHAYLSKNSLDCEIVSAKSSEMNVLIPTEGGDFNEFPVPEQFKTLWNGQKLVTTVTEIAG

Row | Binder | binding result [2] | binding result [3] | other results
1 | humanized anti-peptide-6 antibody variant VH2/VK2 (antibody, V domains shown) VH: QVTLKESGPALVKPTQTLTLTCSFSGFSLSTSNMGVGWIRQPAGKGLEWLLHILWNDSKYYNPALKSRLTISKDTYKNQVVLTMTNMDPVDTATYYCARMGGYYGNYGYYAMDYWGQGTLVTVSS VL: QIVLTQSPATLSLSPGERATMSCTASSSVSSSYLHWYQQKPGKAPKLWIYSTSNLASGVPSRFSGSGSGTDYTLTISSLQPEDFATYYCHQYHRSPPTFGQGTKLEIK |  |  | binding result [1]: binds
2 | humanized anti-peptide-6 antibody variant VH3/VK1 (antibody, V domains shown) VH: QVTLKESGPALVKPTQTLTLTCSFSGFSLSTSNMGVGWIRQPAGKGLEWLLHILWNDSKYYNPALKSRLTISKDTSKNQVVLTMTNMDPVDTATYYCARMGGYYGNYGYYAMDYWGQGTLVTVSS VL: QIVLTQSPAILSLSPGERATMSCTASSSVSSSYLHWYQQKPGKAPKLWIYSTSNLASGVPSRFSGSGSGTDYTLTISSLQAEDFATYYCHQYHRSPPTFGQGTKLEIK | binds |  | 
3 | humanized anti-peptide-6 antibody variant VH3/VK3 (antibody, V domains shown) VH: QVTLKESGPALVKPTQTLTLTCSFSGFSLSTSNMGVGWIRQPAGKGLEWLLHILWNDSKYYNPALKSRLTISKDTSKNQVVLTMTNMDPVDTATYYCARMGGYYGNYGYYAMDYWGQGTLVTVSS VL: QIVLTQSPATLSLSPGERATLSCTASSSVSSSYLHWYQQKPGKAPKLWIYSTSNLASGVPSRFSGSGSGTDYTLTISSLQPEDFATYYCHQYHRSPPTFGQGTKLEIK |  | binds | 
4 | humanized anti-peptide-6 antibody variant VH3/VK2 (antibody, V domains shown) VH: QVTLKESGPALVKPTQTLTLTCSFSGFSLSTSNMGVGWIRQPAGKGLEWLLHILWNDSKYYNPALKSRLTISKDTSKNQVVLTMTNMDPVDTATYYCARMGGYYGNYGYYAMDYWGQGTLVTVSS VL: QIVLTQSPATLSLSPGERATMSCTASSSVSSSYLHWYQQKPGKAPKLWIYSTSNLASGVPSRFSGSGSGTDYTLTISSLQPEDFATYYCHQYHRSPPTFGQGTKLEIK |  | binds | 
5 | humanized anti-peptide-6 antibody variant VH1/VK2 (antibody, V domains shown) VH: QVTLKESGPAIVKPTQTLTLTCSFSGFSLSTSNMGVGWIRQPSGKGLEWLLHILWNDSKYYNPALKSRLTISKDTYKNQVVLTMTNMDPVDTATYYCARMGGYYGNYGYYAMDYWGQGTSVTVSS VL: QIVLTQSPATLSLSPGERATMSCTASSSVSSSYLHWYQQKPGKAPKLWIYSTSNLASGVPSRFSGSGSGTDYTLTISSLQPEDFATYYCHQYHRSPPTFGQGTKLEIK | binds |  | 
6 | humanized anti-peptide-6 antibody variant VH1/VK3 (antibody, V domains shown) VH: QVTLKESGPAIVKPTQTLTLTCSFSGFSLSTSNMGVGWIRQPSGKGLEWLLHILWNDSKYYNPALKSRLTISKDTYKNQVVLTMTNMDPVDTATYYCARMGGYYGNYGYYAMDYWGQGTSVTVSS VL: QIVLTQSPATLSLSPGERATLSCTASSSVSSSYLHWYQQKPGKAPKLWIYSTSNLASGVPSRFSGSGSGTDYTLTISSLQPEDFATYYCHQYHRSPPTFGQGTKLEIK | binds |  | 
7 | humanized anti-peptide-6 antibody variant VH4/VK2 (antibody, V domains shown) VH: QVTLKESGPALVKPTQTLTLTCSFSGFSLSTSNMGVGWIRQPAGKGLEWLAHILWNDSKYYNPALKSRLTISKDTSKNQVVLTMTNMDPVDTATYYCARMGGYYGNYGYYAMDYWGQGTLVTVSS VL: QIVLTQSPATLSLSPGERATMSCTASSSVSSSYLHWYQQKPGKAPKLWIYSTSNLASGVPSRFSGSGSGTDYTLTISSLQPEDFATYYCHQYHRSPPTFGQGTKLEIK |  | binds | 
8 | humanized anti-peptide-6 antibody variant VH4/VK3 (antibody, V domains shown) VH: QVTLKESGPALVKPTQTLTLTCSFSGFSLSTSNMGVGWIRQPAGKGLEWLAHILWNDSKYYNPALKSRLTISKDTSKNQVVLTMTNMDPVDTATYYCARMGGYYGNYGYYAMDYWGQGTLVTVSS VL: QIVLTQSPATLSLSPGERATLSCTASSSVSSSYLHWYQQKPGKAPKLWIYSTSNLASGVPSRFSGSGSGTDYTLTISSLQPEDFATYYCHQYHRSPPTFGQGTKLEIK |  | binds | 
9 | humanized anti-peptide-6 antibody variant VH2/VK1 (antibody, V domains shown) VH: QVTLKESGPALVKPTQTLTLTCSFSGFSLSTSNMGVGWIRQPAGKGLEWLLHILWNDSKYYNPALKSRLTISKDTYKNQVVLTMTNMDPVDTATYYCARMGGYYGNYGYYAMDYWGQGTLVTVSS VL: QIVLTQSPAILSLSPGERATMSCTASSSVSSSYLHWYQQKPGKAPKLWIYSTSNLASGVPSRFSGSGSGTDYTLTISSLQAEDFATYYCHQYHRSPPTFGQGTKLEIK | binds |  | 
10 | humanized anti-peptide-6 antibody variant VH4/VK1 (antibody, V domains shown) VH: QVTLKESGPALVKPTQTLTLTCSFSGFSLSTSNMGVGWIRQPAGKGLEWLAHILWNDSKYYNPALKSRLTISKDTSKNQVVLTMTNMDPVDTATYYCARMGGYYGNYGYYAMDYWGQGTLVTVSS VL: QIVLTQSPAILSLSPGERATMSCTASSSVSSSYLHWYQQKPGKAPKLWIYSTSNLASGVPSRFSGSGSGTDYTLTISSLQAEDFATYYCHQYHRSPPTFGQGTKLEIK |  | binds | 
11 | humanized anti-peptide-6 antibody variant VH1/VK1 (antibody, V domains shown) VH: QVTLKESGPAIVKPTQTLTLTCSFSGFSLSTSNMGVGWIRQPSGKGLEWLLHILWNDSKYYNPALKSRLTISKDTYKNQVVLTMTNMDPVDTATYYCARMGGYYGNYGYYAMDYWGQGTSVTVSS VL: QIVLTQSPAILSLSPGERATMSCTASSSVSSSYLHWYQQKPGKAPKLWIYSTSNLASGVPSRFSGSGSGTDYTLTISSLQAEDFATYYCHQYHRSPPTFGQGTKLEIK | binds |  | 
12 | humanized anti-peptide-6 antibody variant VH2/VK3 (antibody, V domains shown, also called humanized VH2/VK3; PRO01 VH2/VK3) VH: QVTLKESGPALVKPTQTLTLTCSFSGFSLSTSNMGVGWIRQPAGKGLEWLLHILWNDSKYYNPALKSRLTISKDTYKNQVVLTMTNMDPVDTATYYCARMGGYYGNYGYYAMDYWGQGTLVTVSS VL: QIVLTQSPATLSLSPGERATLSCTASSSVSSSYLHWYQQKPGKAPKLWIYSTSNLASGVPSRFSGSGSGTDYTLTISSLQPEDFATYYCHQYHRSPPTFGQGTKLEIK |  |  | binding result [4]: binds; binding result [1]: binds
13 | chimeric mouse-human anti-peptide-6 IgG1 antibody (antibody, V domains shown, also called chimeric mouse IgG1; chimeric mouse antibody) VH: QVTLKESGPGILQPSQTLSLTCSFSGFSLSTSNMGVGWIRQPSGKGLEWLLHILWNDSKYYNPALKSRLTISKDTYNNQVFLKIANVDTADTATYYCARMGGYYGNYGYYAMDYWGQGTSVTVSS VL: QIVLTQSPAIMSASLGERVTMTCTASSSVSSSYLHWYQQKPGSSPKLWIYSTSNLASGVPARFSGSGSGTSYSLTISSMEAEDAATYYCHQYHRSPPTFGSGTKLEIK |  |  | binding result [5]: binds
14 | mouse anti-peptide-6 monoclonal antibody (IgM) (antibody, V domains shown, also called mouse-IgM) VH: QVTLKESGPGILQPSQTLSLTCSFSGFSLSTSNMGVGWIRQPSGKGLEWLLHILWNDSKYYNPALKSRLTISKDTYNNQVFLKIANVDTADTATYYCARMGGYYGNYGYYAMDYWGQGTSVTVSS VL: QIVLTQSPAIMSASLGERVTMTCTASSSVSSSYLHWYQQKPGSSPKLWIYSTSNLASGVPARFSGSGSGTSYSLTISSMEAEDAATYYCHQYHRSPPTFGSGTKLEIK |  |  | binding result [6]: binds

From US20120156201A1 (PROTAB, published 2012)
